Test: protease stability score; higher = more stable; yeast display proteolysis, trypsin and chymotrypsin;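 also: relative to predicted unfolded state with 0 unfolded-like and 1 meaning tenfold more protease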
With “SEEEHDVEFVRRLQEEVWHTGDEDKLEELLDPDARAHVNGVTYHGREFVHFFYKRVDHVHHYQIEETRVVGDKLHLISRTDLVINGQRVKTELRWNITKVNGKWRVTEVRID” the protease stability score was 1.06.
Work on “DEDTEIAFELVDLVMKSLKTGDEHLMLRLMDPHTRLEVGDKEHHGWEEILKELSEIRIHLEDVDHRDVRIYGEKIHVDVEVDITIEYNGRRTRVKTRLEVDILKVNGQWRVKQVSLK” yielded a protease stability score of 2.07.
Work on “DNESHLAEEWFRWFIDWMQTGNEEETRKFADPNVRFDINGVEIHGMKLYEDHIKHLGFRQDIRIRHIDTYDGQVDVDTEVRINVNGVEIRHKTRTNLIMIDGKLKTLTVKLE” yielded a protease stability score of 1.01.
In the case of “SEREEHDEFIMKLSLELEKTGDEHTIERLADPNPRIILEQGDKRITRHGWEHWEELLRRLGIKHIEFHRHKAINGQVHVDGTLRFDGVTVRSELVLIMVDGVMKTIKVIIR”, the protease stability score is reported as 1.44.
“SELEEITEKAIRMDLQHEETGDWKKYSDMIDPHARFIVNGVEFVGRHFLLKWFLDVAKRVDHSRMHVDHEEHVDGRIHVDFRFELIFDGREYRIRSHIVADKIDGQWYFRQIRFQ” showed a protease stability score of 1.29.
Work on “DEHEEASKLAIELLLTLERTGDEDKLRKLVDPNVRYDINGRELHGWEFMHRMIRHLRTEHVTIERVHVQGDWIHIDRILNVNVNGKEINIRTKINAQKINGVWIEREVEIQ” yielded a protease stability score of 1.09.
For “DEEEKFSREVMELHIELWETGDEDTLTRLADPHAKFVLEWNGRNHTNHGMDVLIHMLHRLLKELGIKHTELRRKDVIGDKNHIHRRVIVNGVPTDLDLELVIIDGKLREYRIHIRIR”, the protease stability score was 1.56.
“TEHDHDTERAFKEWFDVVRTGDFHRLERMLDPNVLSRIDGKLIHGRERLLKFWQEYLEHLGANHHEIHHVDIQGDKINIDIRVEYGDKRFTVHVHASKINGQWRVHENEKQ” gave a protease stability score of 1.02.
“TEEDEMWHKFMEHYVHNFLTGDPNKAKKLADPDTRFEIDGKDVVGMERIIDEFLKVPGLRSEIKRVTFIGDKIHIDGRMIINGVETKVDIDIHVVNGVIKSIHIRVR” gave a protease stability score of 0.74.
For “DDHKKLVDEMIRIVLEELKTGNEETFNKLADPNVKVEWNGVDNHGREEVEEWWREYREVLGVDVIHIELKHVDPQGDKARIDGIIVETQGEKHHSFRAHIIIVVVNGRMHSIHERRR”, the protease stability score was 0.881.
Work on “DEEEEKLRFAVELFEETFRTGDEKLKEHLADPDVRVHYGDFEYHGRETLERWTRFVKGVKVELKSIDIINGVLDLDGTLHFNGRTFDTRYLALKINGRWILKRVIIH” yielded a protease stability score of 1.49.
Sequence “DHLRHTVERMVLHLLRLSLTGDEEEWLKLLDPNTKLEVGDKTRHGREDVAQFLLEMRVERVEVSDYRFNNVNGVVRVEIDGHFDFEYDGKREDSRVEIYLLFEKVNGKWHLKFVKVVFK” has a protease stability score of 1.69.
“DEEERHVQTLYEIFLKLEITGNEHAIKRLLDPHTRLHINGREHHGREEVVEAVRFWLTEWRIHHFKIHNREVQGDKMYMDTRLEVEFNGVNEEVHMIIIMQKIDGRWILRRIEIE” showed a protease stability score of 2.25.
“REEEEEIEEALRQWLTLHETGDFKYLEKLFDPNVKQDVGDKELHGRELFSKFEHELAERIKGVRFRYHYEEIHIFDGRVVLRLDGIWEIGDKSMRVTLIVIMNKFDGRWKLESLHIEYR” gave a protease stability score of 1.24.
In the case of “DEEEEHLHSVAKRFLHSVETGDWKDLYELLDPHARFESVFNGRKVEHHGREEARKWFQEWVERFKNMRLHIEEVRTQGDKTHVDSRVHYGDKTINTIIHIVIVNGKVHHVEIRVK”, the protease stability score is reported as 2.2.
For “DELREDSERAEEWLITASETGNEEDILKLADPNTRIDINGKDLHGRESLEHFIRRYKGVTVRIRHRDIINGKLHLDTELRIDGVTLRTELIITKVNGRWYLEEQIVR”, the protease stability score was 1.07.
Work on “DEDREFLIEMIELFMKFLLTGDWEQFAHLADPNDRFNVNGRDNHGREVWIKEVEEMRIHSLHIEDQDAFNGVIHVDFRVEGHFDGRTHIQKVEIHIRIVNGRVKSVEHHIH” yielded a protease stability score of 0.575.
“SEEEEDLKTMSDFVLHLFETGDEDIFNHFADPDARLHIGDKIAHGREHFKRVFEDLMHRLGVDHIEIRRRSITIIGDKVHAHVDGLTVIGDKVHHVELRFVIVKYNGRWFLKRVEVHNR” showed a protease stability score of 1.71.
Work on “DEETEDLRRWFEALLRSTHTGDFHTLNRLIDPNVRMDVGDKRHHGREFFEHLLRRADHIKIELEDYEFQGNKVIFHGKLIIHYNGQDLEYKSSMDAEKVDGRWIVRRVYLE” yielded a protease stability score of 1.58.
“SEDEELIRRFLDEFEKVIRTGNETELQRLMDPNTRFEIDGVEYHGREEVSNLLIDWAKELRLHSLHFRHIELQGEKIKIDTRENREVDGKRHVRRTEIILIKIDGRWYLHSMRYE” showed a protease stability score of 1.98.
With “DDKQRAYEELTRKTLEVIETGDERMIEEMLDPNVRIHIDGKHVHGMEEATRIFLHEFHHLGFKHFEFKSVIEVDEKLIVTGHMRVDGREVELRIVIWKVNGRWTTESIQIHRL” the protease stability score was 1.4.
Sequence “DKEEHDVHNMWQHLVEVLLTGNEEAIHENLDPDAKLEVGDKRYHGRELVSEVWSRLGINVIQLDDMRPIGNKVHVETTTHFNGKTLEMRIDAHKVNGRWLSESLIIR” has a protease stability score of 0.951.
For “SHEEELEEKIARILLEAWITGDEEFLFRLADPNVKLDIKYGDKRHIHIGREELLKWYRHELERFKNMKIVLHDRHIQGEKVHLHLVMHFNGQRIDVRIEVIIINGRIKHIHIEVDEK”, the protease stability score was 2.6.
For “DELKKMLKEMEEFHTDLLETGDFEKIIRNVDPHVRIDVNGQEHHGWHEAVEFIREFIERFKNVKIIIEHVEIQGDKLILHMEFRQGEFHSRLIVYSLKVNGRWILKDMEIR”, the protease stability score was 1.67.
“EEEEEFLRIMIELFLRTVKTGDEDAFNKLADPNVKSNINGVTLHGMERHHEWLRIELEKAGVERVDTRLDDKNIIDGRVIVHGTMFYNGRTITVHNIWHKINGRWVLETIEIR” showed a protease stability score of 1.6.
Sequence “DEDKKELEEMFRILKEMWETGDWREESRMVDPHARVDINGVELHGREFIMEHIHRVKNMRFEIKRFDVVNGVLEIVGELHQGDKKHRVTIHALKFDGKWLQETVIIG” has a protease stability score of 1.6.
Sequence “DELTRQMRTFAERWIHAERTGDEEILRELMDPHAKLDVKQGDKRHDWHGRERITEFIRRMGIKHIQVDHVELQGEKIHMHVTMYVDGQVLDSTLKLWVVDGVTKSVEIEFK” has a protease stability score of 1.2.
In the case of “DEDERDTRLALEELLRVSRTGNEHDHHRLVDPHVRMEINGRELHGWEVLVRLMHRYDHQELRVREVRVIGDKIDVDTENIVNFNGVEIVLETSIVARKIDGRWLIHSIHIG”, the protease stability score is reported as 1.23.
With “DTEEEILKQYLELLRRQHATGDEDSIKHLVDPNVRNDVNGVDIHGRDRMREWIERHRHNLGIDHIEIRITDLHIIDGRIHLDVRVFYRVDGRTIHMEIYVVLVKVDGRWSVKSRHLH” the protease stability score was 0.911.
For “SEHEEHIHKLMREWIEALLTGDEEHIEHLVDPHDRLNIDGRHYHGRENATKALHQKREQIRIEHIRVDDVKFYGDKVHVEMTVHGNINGKRIEIDTRFIIVVIDGVLRSFEFRHK”, the protease stability score was 0.122.
Sequence “DHEEEEEHFLLEHMIEAIVTGDEDRLKELVDPHVRMDIDGVIIHGMDDIARWLKELRSIIRHFIPRDRKWQGNKIHIEGEVHGELRFDGRNQTDTFRIEIVSHKINGRWVIRSESFR” has a protease stability score of 1.18.
Work on “SELEELMKRLVKDWLHNWITGNEDRIWELADPDALVHFDGVISHGREEVIKLIRRFTEELRIHRIQIDHIKIQGDKIHIHLTEDGTIGDKRKEINVEIILFIINGKFKSSEIRIR” yielded a protease stability score of 1.49.
For “DEDHRDAQRLVEHWINVFETGDEEQIEKLLDPNARVIVDGRHVHGRSSVLKFIVDLVREMRVELRLKDLSVVDGRVHVKMEMRIEINGRREETEVDINAEKVDGVWRFKEMFVI”, the protease stability score was 2.47.
Sequence “HEDDRIVQEHWKRLSEAWLTGDEERAKKNADPNTREVINGKELHGREEVTRLYREIRRSIEHVEIRDSRIQGDKLLIDVNMVISVIIGDKEFRIEVRVNVIMIKFDGVWHLETVHFH” has a protease stability score of 0.187.
“SEREEKIEHALRRLFEVILTGDERLANELLDPNVLLDVGDKKIHGREEVMRILHHWRIDKFEMHTHDIRLIGEKAHVDTISDRRVHVNGRTQDITERVHFVVLKVNGVWFIHSMHIH” showed a protease stability score of 1.59.
For “SDEERSIKILIDLYRLAQETGDERIMREYADPDMKLDIGDKRDHGWEVLVRMVRHLRFHEIHIEHFEVQGNKMHITVRIDTEVNGQRWILRAHIIVTKFNGKWRIEHREEE”, the protease stability score was 1.45.
With “DERHEHVREMSHRMEEWFETGDEDKWVKNADPNVITDINGQKLHGRENAARFLLHYHNRFKGMRFDIEDVDIQGEKVHIHSVQHFDGVKFDVRLIFEVFDGVIKSMHVEVK” the protease stability score was 0.706.
For “SEDEEDMKKASETISEEYHTGDEDAHKKLMDPNARMLYGDKDTHGREHWEHVIKRFGFDHVIIKRIEIHVYDGRIDLHMDVRLIVNGQNLEVRLIIIVRKINGRWRIESVNIHIE”, the protease stability score was 0.061.
Sequence “NEEQNHAERMMRENLHNIMTGDEHKLHKLADPDARIEIGDKEIIGRELFSRILLELRFEITRVHIREITLIGDKVHVRTEEDVVIKVNGVEKRRHINSEWIFFKFNGQWLLKEVRFE” has a protease stability score of 1.34.
“DERERDAEDALDELREIWRTGDWELIHQMLDPEVRLDINGVRLVGREHWVDEVRRLFHKVPGMTYHLKDVHFQGNKMHVDILSRYDGRESKVDLILLKINGKWLNKEVRIREE” gave a protease stability score of 0.807.
For “DERHNKQWNKELIKIWTDGDHKKFSEMLDKDVQIQVGDKEYHGREEIVRQYKTLMDRADHFEVKRYEVKGNDITIIFTFQVNGRRDQVRVVFVIENGHVKKITMDKK”, the protease stability score was 1.97.
“SEEEEKTRRILEELFELFLTGDEQRTLELFDPNMRFHLHYGDKELHLHGREEVAKFLHDHRHRVKNVKFHLKKEEVQGDKAILYIRVEIDGQEVYLNIEIHVIDGKLHEVVERIHEV” showed a protease stability score of 2.25.
With “DEDHKQSKHAFELFMHLLRTGDEEVLRRMADPNARIVVNGKDDIGREVFLRVLLEFGVDHMQIRDWELDENHIILVSELRIGEKTHTLDVHFKKINGRWIVEVNNLE” the protease stability score was 1.25.
“DEHQRMLELFMRLLMHSQETGDEKTLRELADPNARIHVGDKDYVGREHAAKLLVEWRIHDLELRTVDVQGDKIQWEGELEGEYNGKQDRYETYIIVTKIDGRWLEERVIFK” gave a protease stability score of 1.3.
Work on “DEDHEHLKRMADRSWKIFLTGDEDTFVHLADPNVKQHINIDGRNHQNHGREVILRWQEEFQNYFKNMKIELHDMKFYDGRVHIDATLHWNGVERKIHLIFVIVDGRIKEERFHVR” yielded a protease stability score of 0.707.
“DEDEETAREMVEHFLQILLTGDEHNLSRLMDPNARVQIGDKTLHGRVNFVKWIEELGLDRVDVQLRRSRVIGNKIHIHGEERFNGVTMESHVDAVKINGQWHIERVEHR” showed a protease stability score of 0.629.
Sequence “SEEEELAERFYEKFLRLARTGDEDELKRLFDPHVRHYVDGRELIGRELLVKFLIEWRVHDSEIREVRIQGDKLWFNTVIHGNFNGVETKQEMEVRSRKIDGQWFATEVQIK” has a protease stability score of 0.694.
For “TEDERLFHETLKIFEHAVQTGDEEELERMLDPNVRSTINGVRLHGRESFRKLFHIIWREIRFESVDVKRIHIQGDKMIWFTRIDGIFNGQRDLREVTIFADKIDGRWIFKEVDVR”, the protease stability score was 2.1.
Work on “DEEERLVRKFSSVVKHIFKTGDWKRFTELADPDTLLIIIIGDKEIRHHGREEITHALREWFRILGIDHFHIRDERYQGDKVELDTEVRYNGQTHDFVIEVIVVDGRAKEFKIRFR” yielded a protease stability score of 1.67.
Work on “DEIREESERFARKLVHDWQTGDWRSLLLLMDPNVRLILHFNGVEYRFHGMEIVLEWLKRLIERVDHVFFHVKDIRIQGDKIELRIEEEFRQGDKSRRHDVVLHLVVIDGKIKSISFEVL” yielded a protease stability score of 2.7.

— the NTF2 design screens of Basanta et al. (2020)
